In PMC4414810 one finds Kd, IC50 and Ki data, which are given here for four substances.

Holding throughout (experiment): fluorescence polarisation
(In general: Fluorescence polarisation rises when a labelled molecule tumbles more slowly, as on binding a larger partner.)

Experiment [1] concerns the target fluorescein-labeled HalA2 (Bacillus halodurans C-125).
Experiment [2] concerns the target fluorescently-labeled, fully-modified HalA2 peptide (Bacillus halodurans C-125).
Experiment [3] addresses 5-FAM labeled HalA2 core peptide (Bacillus halodurans C-125).
Experiment [4] concerns the target HalM2 (haloduracin lanthipeptide synthetase) (Bacillus halodurans C-125).

Consider “HalM2 (haloduracin lanthipeptide synthetase) (enzyme)”, for which the Kd (as a rule, the concentration at which binding is half-saturated) in experiment [1] came out at 1.9 µM; in experiment [2] it was 10.4 µM.
In experiment [3], “HalCE2 (HalA2 leader peptide attached to the N-terminus of HalM2 through a (GS)15 linker) (enzyme)” gave a Kd of 85 µM.
On to unlabeled HalA2 peptide, for which, in experiment [4], the IC50 (commonly the concentration that gives 50% inhibition) is 1.2 µM and the inhibitory constant (Ki) – broadly, the equilibrium dissociation constant of an inhibitor or competing ligand from its target – is 1.2 µM.
For unlabeled HalA2 leader peptide, in experiment [4], the IC50 is 5.6 µM and the inhibition constant Ki came out at 5.5 µM.
